From the supplement of paper PMC12764529
± gives the half width of the 95% confidence interval.

Tests used:
[1] = folding stability dG unfold from trypsin proteolysis; higher = more stable
Outline: (§1)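 Only designs with AlphaFold2 dimer inter-PAE above 15 were retained; each was a mini-protein under 80 residues with no cysteine, in a PA-tagged cDNA display construct. After digestion with trypsin and chymotrypsin and sequencing, K50 was inferred by Bayesian fitting of counts, and unfolding free energy was derived per protease or combined against a sequence-predicted unfolded-state K50 and a shared folded-state K50.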

[2] = folding stability dG unfold from chymotrypsin proteolysis; higher = more stable
Outline: as §1

[3] = folding stability dG unfold (combined trypsin and chymotrypsin); higher = more stable
Outline: as §1

Sequence	folding stability dG unfold [1]	folding stability dG unfold [2]	folding stability dG unfold [3]
SAGGSAGGKVKFEIPNAKITSVEYDPNPGLLKVEFELPNGLKLTAIFKIDKDKAILAKIEISPESAGGSAGG [r6_718_TrMRF]	2.57 ± 0.071 kcal/mol	3.51 ± 0.045 kcal/mol	3.23 ± 0.081 kcal/mol
SAGGSAGGSAPEVKIKVELFENENGELTATATIEVDGKLYKITVKFDKNGKIVEVKIEELPSAGGSAGGSAG [r3_165_TrROS_Hall]	2.83 ± 0.22 kcal/mol	4.39 ± 0.27 kcal/mol	4.14 ± 0.45 kcal/mol
SSVTIPFKITDPNTTIAEIAERVRELLPESLGELSVTVTFSDGTTLNVTPGENLSKYYSPDDELTITVDAPS [r1_56_JUSTAS]	1.29 ± 0.034 kcal/mol	1.23 ± 0.11 kcal/mol	1.27 ± 0.11 kcal/mol
SAGGDITITKNPENDYYTITLPLPNSNSTAVAFLDPKTGTAVVINPDNPLVLVLEPNGTLKEVKLLPPSAGG [r13_101_TrMRF]	1.04 ± 0.05 kcal/mol	0.566 ± 0.2 kcal/mol	0.902 ± 0.15 kcal/mol
SAMYVRITVTFETPDGTRTVTIEIPPSEVEAGKPLSEEELKALAEEIAAKDPNATITEITIERFPESLESAG [r14_373_JUSTAS]	4.29 ± 0.11 kcal/mol	3.865 ± 0.037 kcal/mol	3.99 ± 0.075 kcal/mol
SAGMILPPNTVVTLSTTTTEELPLFTDGSGPRTTTTETVVTVEPVPVNPYPDPAVREKLLAEGKPLELLSAG [r5_624_JUSTAS]	-0.513 ± 0.13 kcal/mol	-0.207 ± 0.13 kcal/mol	-0.265 ± 0.12 kcal/mol
SAGMIRIIVDGKEVEEIEMSEEELRALLADPNIKKARVFVNGEEKEVEVKEGEIKEKLPPGAVIRIEKSAGG [r19_152_TrROS_Hall]	1.45 ± 0.061 kcal/mol	2.04 ± 0.031 kcal/mol	1.79 ± 0.12 kcal/mol
SAGGLTPEQWREIAKNFANELAKEYQERGPNVKIDVEVDPEEGYFKIKVENNDENMPRTITIPWDDIRSAGG [r13_354_TrROS]	0.701 ± 0.046 kcal/mol	1.35 ± 0.066 kcal/mol	1.1 ± 0.079 kcal/mol
MIIIPNATPEEVKKIILDAAKKGKEIEILIEVDPNLGPKVIKALKDLPYVKKVEPLPDGSIKVYIDKKNLKS [r1_324_TrMRF]	1.71 ± 0.038 kcal/mol	3.24 ± 0.048 kcal/mol	2.89 ± 0.093 kcal/mol
SAGGSAGGKKVYEIKGLTPEQIRALVKENKGKVTIYYKDGKKEEKTIKEGDEIAPGETVYIEVESAGGSAGG [r6_303_TrROS_Hall]	0.858 ± 0.11 kcal/mol	1.74 ± 0.13 kcal/mol	1.56 ± 0.21 kcal/mol
SAGGSAGGSAGGMILVQDKKTKKWYEIKPGESLENLEFPEGVKEVRIYVFNEDGELVELDSAGGSAGGSAGG [r7_763_TrROS_Hall]	1.39 ± 0.043 kcal/mol	2.45 ± 0.027 kcal/mol	2.28 ± 0.12 kcal/mol
NINPEFMEKIVNEIANRMNQQGWKIKKVDIEPYPNGMIDIKVNGREIEFPWPNGRWFRIKVEAKRVPPEQRS [r1_31_TrROS]	1.93 ± 0.027 kcal/mol	2.87 ± 0.076 kcal/mol	2.41 ± 0.076 kcal/mol
SAGGSAGGGSFTLTEEPGGVLTITTPDKTLTVNLEGVTPDPNSDTTFSFTLSLDPDDSASVTSSSAGGSAGG [r6_202_JUSTAS]	1.44 ± 0.023 kcal/mol	1.43 ± 0.091 kcal/mol	1.47 ± 0.1 kcal/mol
SAGGSAGGKIKVEYNPENNMYRVTIKLPGGKIKIYIPPGQTEEQGEKNVKHMAKELLKKNGIKISAGGSAGG [r6_679_TrROS]	-0.0228 ± 0.46 kcal/mol	1.47 ± 0.14 kcal/mol	1.17 ± 0.44 kcal/mol
SAGGSAGGSAGRRRVFFTPDGTLIVVDELPDFVRVTRYRITPGFPRIEPVDTRVLPPGALSAGGSAGGSAGG [r11_844_TrMRF]	1.11 ± 0.18 kcal/mol	2.94 ± 0.086 kcal/mol	2.25 ± 0.16 kcal/mol
SKKTVYRIVIELENGEKLEIEVPLGSEVKIEKKEDGTITITVNGKKIEIKLKPGEKAKIVKIEKLPEEEESA [r9_773_TrROS_Hall]	2.1 ± 0.13 kcal/mol	2.48 ± 0.064 kcal/mol	2.52 ± 0.23 kcal/mol
SAGGSAGGSMHEDEQLPYEAAEKYTILKLKEENEKLNLPPIPIKKIEIEKDPETGLVRVKVYGSAGGSAGGS [r12_583_TrMRF]	-0.788 ± 0.42 kcal/mol	-0.579 ± 0.6 kcal/mol	-0.552 ± 0.39 kcal/mol
SAGGSGKEFEVEKAVFIPLPDDRKLIIVKTKTSIQIVEYNGEEWKLVATYPYKDVPKNPRELLKKKSAGGSA [r2_133_TrMRF]	0.454 ± 0.22 kcal/mol	1.13 ± 0.14 kcal/mol	0.929 ± 0.22 kcal/mol
SAGGSAGGSDTLEYEVPLEDGSTIRITLFPDGTARVELEDGTPVAEIEVPPDTSIEELIARIRSAGGSAGGS [r12_990_TrMRF]	2.74 ± 0.081 kcal/mol	2.06 ± 0.063 kcal/mol	2.45 ± 0.076 kcal/mol
MYLVRIKIEYKTEDGEKVEKEITLLVEPSEEEAKEKAEELARKIAEELGLSEEEIKKIEVEVVKLGEELEES [r1_159_TrROS_Hall]	4.05 ± 0.22 kcal/mol	4.37 ± 0.12 kcal/mol	4.29 ± 0.15 kcal/mol
SMKEPPKVTIEIEYDEETETVRVRITLEDGTEIEVEVEAENKEEALREAIREALKKIFPELTDEQIEKLLSA [r9_634_TrROS_Hall]	3.45 ± 0.24 kcal/mol	1.58 ± 0.11 kcal/mol	2.72 ± 0.29 kcal/mol

Sequence	folding stability dG unfold [1]	folding stability dG unfold [2]	folding stability dG unfold [3]
SAGGIVEEAIKKLFESGIPLSEEEIKEIIEKAIKEENEKKGKKIEKIEIGEIKFNPETGYAPIKIKASAGGS [r16_365_TrMRF]	-0.383 ± 0.48 kcal/mol	1.44 ± 0.13 kcal/mol	0.856 ± 0.83 kcal/mol
SMDFKENQSFYITEITDDEVTFIFNNKPYKFPKEFINSKDTIITIYNGKIKEIKKPKPLKLHPEEIKKLSSA [r9_842_TrMRF]	0.519 ± 0.17 kcal/mol	1.43 ± 0.12 kcal/mol	1.04 ± 0.36 kcal/mol
SAGGSAGGSAGGMVIERPLPNGEPLLVELGRPASAPARVTVPNPGRPLGTITSLEELEERSAGGSAGGSAGG [r7_72_TrMRF]	-0.207 ± 0.11 kcal/mol	0.565 ± 0.03 kcal/mol	0.332 ± 0.13 kcal/mol
SAGGSAGGSAGGSWKIDKFTSIERTDGGYVIRIRMENPDGPPMKQTFYFPPGDDELANISAGGSAGGSAGGS [r4_253_TrROS]	0.285 ± 0.21 kcal/mol	0.242 ± 0.3 kcal/mol	0.344 ± 0.27 kcal/mol
SAGGMRLRIVVKSEEEARELAEALAKKLKEEFPGLKIEVKVVKVEYNEETDLIVVEVEIKVELEDEEPSAGG [r13_585_TrROS_Hall]	4.6 ± 0.33 kcal/mol	4.42 ± 0.19 kcal/mol	4.42 ± 0.35 kcal/mol
SAGGSAGGKEVYKIKVKNAEIVDFDEETGELTIKLKETGKEIKIPLKAIKKIEITDDYIYIYVESAGGSAGG [r6_313_TrROS_Hall]	3.64 ± 0.25 kcal/mol	4.21 ± 0.13 kcal/mol	4.15 ± 0.17 kcal/mol
SAGKIKIEVEYLDPNGDWRRYEHTIPFKPNQSFEEAINELLPPGLREIKITEVDPEEGTIKIDIWIRPDSAG [r5_227_TrROS]	2.12 ± 0.13 kcal/mol	2.5 ± 0.061 kcal/mol	2.41 ± 0.19 kcal/mol
KTIMIWFPFKSWEDVRNLIRDLARELNLPPGRDVDVKVERHPNNGYFRVTVTVSNPNGEKIDITIWFPMWDS [r1_84_TrROS]	3.42 ± 0.1 kcal/mol	5.26 ± 0.15 kcal/mol	4.91 ± 0.16 kcal/mol
SIKIRKEKTPNGYYEITFEFPFPDGWPMTIEANVQVDPENGKVKVDIKIEDPNLPPEFKEFIENFEFKVPSA [r9_715_TrROS]	1.75 ± 0.079 kcal/mol	2.97 ± 0.086 kcal/mol	2.52 ± 0.23 kcal/mol
SAGGSAGGSAGPPPIEELLEQAKKNPNRPITIRNPGGYYIRITVKPDPNGKPEVEIEPVPSAGGSAGGSAGG [r11_300_TrROS]	0.259 ± 0.09 kcal/mol	0.336 ± 0.25 kcal/mol	0.263 ± 0.16 kcal/mol
SAGGMVDIYFPDAVIDDSGTKEDILEQLEKVTGKPIPEELREEILKGKTVEEIVELLKKRGFDVRVDSAGGS [r16_601_TrMRF]	2.8 ± 0.12 kcal/mol	3.4 ± 0.059 kcal/mol	3.13 ± 0.12 kcal/mol
SAGGSAGGPEIKVLEVRKLPDGSFEFIVEVPPGDAEKIKSGTVVKIKFGDKEYDVTVEVIPTEGSAGGSAGG [r6_372_TrMRF]	1.73 ± 0.038 kcal/mol	2.52 ± 0.051 kcal/mol	2.24 ± 0.045 kcal/mol
SAGGSATPKDPDGKEWKPIAVIDIEEMRPETLKELLEENKGPIWIHPPGEGKPFWIPADEIEDMIDSAGGSA [r15_904_TrROS]	0.668 ± 0.054 kcal/mol	-0.129 ± 0.2 kcal/mol	0.336 ± 0.21 kcal/mol
SAGGSAGGSAGKKKLTVTVKKKKPAKEKKKVKTKVVKEKKLELSEEELKKLLDELKELLESAGGSAGGSAGG [r11_418_TrROS_Hall]	0.624 ± 0.079 kcal/mol	-0.447 ± 0.14 kcal/mol	0.321 ± 0.16 kcal/mol
SAGGEIEIVVETPEDLEKAKELAEELAKALEEAGLEIEEVKVELVEETVVNEDGEEKKRYVLKITFPSAGGS [r16_591_TrROS_Hall]	2.46 ± 0.1 kcal/mol	3.24 ± 0.086 kcal/mol	2.97 ± 0.14 kcal/mol
SAGGMTLTLVLEANPPEAVEVAVARLLRELGFPDELKIEIDPVGDDKGRIIYPVTIEVNVPELAEKASAGGS [r8_85_TrMRF]	2.19 ± 0.042 kcal/mol	2.62 ± 0.036 kcal/mol	2.41 ± 0.13 kcal/mol
SAGGSAGGSAGMVLPRPDGSLVVITEHPDGTVTVTFAPPDKPITIEVPKEEPVDIRVFPLSAGGSAGGSAGG [r11_164_TrMRF]	1.39 ± 0.043 kcal/mol	0.324 ± 0.087 kcal/mol	1.02 ± 0.046 kcal/mol
SAGGKTITLPNGITITVNEDGTVTVTVTVDGKTLTVTVKVDSLEEALAAILEELRRLLKPPEVTVVKPSAGG [r13_896_TrROS_Hall]	2.52 ± 0.097 kcal/mol	3.43 ± 0.13 kcal/mol	3.07 ± 0.17 kcal/mol
SMTPEEARALAEAIAAERAAAGYATEMELTVTPVNGVPVATFRFRFTDAAGRATEFTVTVAPDGTVTFTPSA [r9_1027_JUSTAS]	3.34 ± 0.089 kcal/mol	3.814 ± 0.031 kcal/mol	3.64 ± 0.08 kcal/mol
SAGGSAGGSAGMVETVSTTTSVETGPDSTRYTTTTTTVLVTDSSGTPIATTTTTTTTVTASAGGSAGGSAGG [r17_139_JUSTAS]	1.45 ± 0.051 kcal/mol	0.314 ± 0.17 kcal/mol	0.986 ± 0.056 kcal/mol
SAGGSAMPKFYLDENGNPVYELPEEPTINTPLKIGIFDEENNPAIEIEIPGSTPLEEIIQKIKDAASAGGSA [r15_309_TrMRF]	0.674 ± 0.065 kcal/mol	0.483 ± 0.14 kcal/mol	0.677 ± 0.2 kcal/mol
